Assay: soluble fraction after stress (log2 fold change); higher = more stays soluble; pooled small domains, quantitative proteomics
Conditions: stress: 75 degC
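Note: 20 min heating vs room temperature control held 20 min.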

Sequence | soluble fraction (log2)
HMNALVAKYKQGVTEEQQQGQGIIIIKRVVVRDQEAWVYEKKIFDWGGVSYFRDKQRITASTFNQETAL | -2.79
HMNAQLTTQEAADLLNVSRPHLVKLLEDGELPFLRTGKHRRVRLADLLQFKNAREQASVQAMDELSRQAQ | -0.103
HMNARSTSYSDFIARVDKDEVASVRLDGETVTYQAADGTTYTTVKPESDPIAERLIAKGIEVNVVRQ | -0.348
HMNASITVPDVRNLTVKQASEQLLASGFTPIPYAATKDGVGNDIVYAQDPPPSVLARSGDQITITYNPA | 0.0994
HMNASTVTLENFEGAKYDDVYGKYDYQFSVTYEQTDKYESGVIISQKPEAGTKIIKGSQVSLVVAT | 0.115
HMNASVIADLFRQTGASVMIHGHTHRPDIHALEANGDAAFRAVLGAWHTEGSMIRVTQDDVTLIAFP | 0.0461
HMNATLEQLTQREREIAVLMAEGLTNAQIGSRLNVSMASVKAHLSHIFTKLGVDNRVSAAMMVL | -0.868
HMNATPDMERYWASSAAEGRALEPLYAVSRGDGGEPLWWSPSRAQAERMAREEGGPLTVDRIDPP | 0.113
HMNAVYAEERRAYILAALEKRGTVHSYELAEQMGVSRETIRRDIMELSNRGLLVKTHGGAIST | -1.45
HMNAYEVLIPNIYIGQRVDQTLASLFPQFSRSRLQNWLARGNLLIDGEIIKPKTKVLGGEQIIILDT | -1.72
HMNDAEEKAEAIEGVKNFMANMEKTDIDFKSKESVLLEQVEEIRKNYPVAQWPVIVKQLYNNIGRL | -0.0997
HMNDIDKFVAALVDQDTMAGTNRAFDENDIQTMKNMSSIEDVKQYAVANGLSSGKVNNALISAGL | 0.234
HMNDIQIILQEAVARLPKKQQLVFNMKYFDHLKYQEISEILGTSVGGLKASYFQAVKKIENYIINKH | -2.27
HMNDRLFQILYLLLEKGTMTAPELSRALEVSVRTIYRDIDALSLAGVPVYATQGKNGGVSLLPNY | -2.46
HMNDTLQEYFEALERLKSNNPINVPKNTKINNDSVALEAGRKRGSIKKSREIFAELIEAINNAS | -0.303
HMNDVEAIDDALKDLHKVSPDLAALVEMKFFGGMTEPEISEILGVSERTVRREWEKARAALLVLLE | -1.63
HMNDVHELPYSSFIEMVERGHVISVTVKHINIEFESTKNENYRTIAPQAMTPPYLELLLKNKDSVKVTFLP | -1.98
HMNDVLVGAIPESASGSRLDKVMPSVFPPYSRSQLQVWLKQGRILMGNGIPSPRLIVSGGEVLSLVVPELP | -1.02
HMNEDFSEIIAAVKKFAVDNLSLSTLSDEELEEQIKTITDNMIGNRYVSIKNRVDIAQQVFSSIR | -0.291
HMNEMEFAQRLRQFRKAKNLTQQELADRLGVSNKSVSRWESGSYPDVGTLVALARALGVTVDELLDPKA | -0.00291
HMNEMEWVAKLIDQLPERERMILQLREIEQYEFDQIASLMEIPEGTVRVYLSRIRKKIKKQFIEIQSH | 0.0404
HMNENFPYRLKEMVVVQSRTWPGINKPGGVGQVMKINPEAGTVNVKYVLGGSEKNIELKYVTSNDLNSK | -0.489
HMNENYNLSKREKEVLDLLVNGKSYKVIATELAISYETVHSHIKKIYHKLHVSSIGEAVSKTIKQKIL | -3.11
HMNEPITIALREAEEAANKILNEGVHSVELSPQNGYVRRLQHELIARYGLTSASRGSDPSRRVSVGAN | -0.295
HMNEQKVSSLLTPRQLAFIDEYLIDFNGAQAAIRAGYSHKTAGPQAARLLVNVNISRMIAERIEARNK | -2.5
HMNEQVAVVSGSQVNVRSGPGTTSAVVGQVSKGDNLPVLNQSGDWYQIKLPGGNAGWVAGWLVSLRPTT | 0.0105

Sequence | soluble fraction (log2)
HMNESPVLAVLTPTERKVASLVAEGLTNQAIAARMILAEGTVKNHVSTLLHKLQAPDRTALALTLYKAFQ | -1.3
HMNETRVDQAADLLLALLEKEPKSAAEILDEFEQAGFSKSGLYRAKDALGVVSIRKEGRWVWSLPHSLD | 0.438
HMNEYIVSAEQEGMRLDVFLTEQMEGSRSYIQSLIKGGHVTVGDKVGKANLRLTPDTVIHVEIPEPE | 0.0133
HMNEYLPEAVQKLLEVMEYDIPYTSNELMERLGLKAKEGFRRNYLHPAMEMKLIQMTIPDKPNSRNQRYLR | -2.13
HMNFHLEHHIAELLYRSIRGELSDFERQELNQWRSDSPMHETLFMRLQDDEYIDEELGVFIK | -2.76
HMNFKNMIDSLSGILFKKDPSAAIIDIGGVRLKVFITVGSYEQLPAKGEQVEILTYLHVKEDILNLYG | -1.85
HMNFMDGFQSFFQESGAMNRPMTADVVSYRLPDGTVQQGNSTMRGLMDQYLKSIGQSPTTGVP | 0.0171
HMNFRESVLAVFENSKQKYLDFDEIAKRLGLTRGFDRQALASMLNELTRNDEIVFTKRNKYTLPEN | -0.524
HMNGAVAEQARKQLMAALKASEFIAEEKLDEWLDALALPEDKRTAIVDAVDELDYEEAISELEN | 0.429
HMNGDYFEYRYAVNGSRSTPPSLSKTSRNPSGWSTTVPTVGNLQYLWFTVAKINGETNSLIQNWSTPARQT | -1.88
HMNGEAQTMYVTARTLNVRKGPGTSYAKAGTLSRGTAVQVVGFSGNWAKLSNGYYVSTSYLAKI | -4.25
HMNGKWKLRIIKELLHSNIRFGQILKNIPDISPKVLSQQLKEMEEDGIIERIVISEMPPNVEYVLTDMGE | -1.66
HMNGLNISYRMDGENVVETIVFPDATMIRTIAPNGVMTIKTIEDGSVSTSELKADYKLYKKIYESQY | -0.748
HMNGSVLVTGGSVWIRAGASKETDGLGIVHKGDVLKRSGSDASGWRGVVYEGQNAFISAKYSSI | -0.89
HMNGTEAIRRYIDQFASKHATTPRMLKLNERKQLIQELKNNGLLEIKKAVETVAQHLGISRASAYLYVKE | -1.52
HMNGVPDMSPVPEGARNSTLHAWAFGRLKNHPDNETGIREDLFRRGHASGLQDAELDQIWKSIKRTL | 0.00545
HMNGVSNETLIQKSALYEELNQPDLALKMINTALKKDSVNIEILHRLVTLLMSQEKNEEAILYNQKIIDH | 0.0902
HMNHSITLTERKNLLITGVKKIENFDKEEFLIETTMGFLVVKGDGLELIKLDTISGNVSIKGIVNGFTYID | 0.15
HMNIAAVIGQTGVLQDDLKAGEQGTVKADNKLWTAVLAEGEEAVKKEERVDIVAVEGVKLIVRRNI | 0.663
HMNIDEIFLTKNEIYFSFEYQKKSQLDRYSKIISLDHRIDKNTAYAYANKKQFLNFINLNIDYKIIDNSF | -2.87
HMNIDEIIGKKAVVIESIDNLQGTGKVRYQGMEWTARAEEENDRIEKDAEVEIIAVKGVKLIVKMK | -0.384
HMNIDNTWQPSEDVVEILTRSGINEDFINELIPEFIVYWTERPGTLVSYNSKFIEHVRLKWAQHSAEI | -0.375
HMNIDVAAEKQQLGPNADQIVKGTVTWMQGLVAKGIWSETDFEEGKIFTATADGINAINKIRRYYGEQT | 0.0956
HMNIEDFKDKVKELKQYTYQELVEDVKLKTDRADVILPASKIYLEAMQQAKVDSIIVPKVGLAEGVAR | -0.012
HMNIEEQVVAEVLVKDFMKQLTPRDIHILELRKNGYTYQEIAGQLGYHTHSAVKKRVDRLAEQWLAYTQGH | -2.26
HMNIFAHQIGKLRTERHLSQTDVAKRLYVSRQAVSKWENGDAEPSLDNLIALAKLFNVSLDNLITGQ | -1.78

Sequence | soluble fraction (log2)
HMNIGVEQIEQMERGALITLWQELIDKPLPRHMSIVFLRQVLAFEVQSKQNGGLPRGFITLLNKQAD | -0.826
HMNIKITKSKNSEHYSIIYNTKINGKRTSKIYENIGNFEKLKLRAGEQEPIEWLKNYVSELNKKQKEDT | 0.11
HMNIKYDFPTNSPLEMMRNLFDSNSQIINDLKDGFAMANSLNEQGLANFFAERIDKHQFWSWQLSASL | -0.201
HMNILDPTVMKNILDKNHEEFIAIYESAPLGQKTIINSMVFDKRLNGENVDANILMYLQNKTNIDYINIEP | -0.536
HMNILNYIIENENQEVRVDKFLSDTIEDMSRSSVASIIEDGGLLVNDKLQNKKYKLKIGDKVQFTVPDPV | 0.0982
HMNILVAISDTGEIWINKRRVDARAVQANIERLHAENPQGTVVIQADKQATTETLIKVMDASRAAGVFDVS | -0.691
HMNINLDINTYTVKELEKLLKLEVPYSDNNVFEKKNLMVKMIQTSTIAETKKEELYIFLDNIYNRLTNNLE | -1.59
HMNISLGALVTITDQKGRSHTVTLESGKQFFTNHGSINHDEIIKAGEGGVVASSSGMLYTIFTP | -0.924
HMNISRESLIGQILATLNKNPEEGFNYKQIAKRLNITDSPGRQMISDLLRELSKHGSLQEISHGKYKIKV | -0.237
HMNITHEINVKSKSKIDFLENNKNLAQFFLTKNPNQFNYNLVFSDKSELNIIKEKIESHKDIEDIDIRYG | -0.0863
HMNIVINVDTPTFEQMKATYQAPGTLPAGASFHAKLKGVTVTGYTKSHKVMFQGALANQEAARWQ | -1.88
HMNIYFNIEDAVANAVVENGKMSAAIYEKNVDTGEVAKLAEVSMPVMGGNINITKTLLTKALISQLP | -0.71
HMNKAYLTVADMKKDKSLKNGDVVRTLGYYGYNDGDGAVYQIKDSHPEDYHIRLDNGLDAEQINY | 0.185
HMNKEHINLDSSKFLSLLNKTKISMSNDETRHYLNGIYIHPTVSNKSSYLTGVATDSHRLSSSSIPVD | -0.366
HMNKMIIELGEKLKALRTENHLRQDQVARLVNVEKSSISMYETGMRQPSYTTLVRLADVFNVTTDYLLGRK | -2.37
HMNKPTSMYKLRLLLKHYHAGASKRWMADVLDISRSTLNVYLARIESLNLAFEEWEALSDLEVSRLLINP | -3.22
HMNKVAQFYRELVSTLSERLRNGERDIDALVEQARVRISQSGELTQSEIENVIRAVRRDLEEFALSYEE | -0.0274
HMNLAISAYQQLKSDIIRGVYAPGEKLLMSRLKVRYGLGIGPMREALSQLVSEHLVTAASQRGYRVAGM | -1.79
HMNLAPLLTEYVQINFRRASEMKTYLEQANLISERGFLLADDQTNILMVRETGASIEEIRRTLNRF | -1.92
HMNLFKAPMPGLIRTIVVAEGQEVKKGDVILILEAMKMENALKSPADLVVKSIKVQQGQAVEKNQLLIEF | -2.44
HMNLGNLLKIYRKNSLLTQQQVADALNINRTTYTYYETGKTEPSIDTLHKLIKIFGITYDDLL | -2.88
HMNLKDINLNVRHYKIIDFVREHGYASIETLTRQFGVSAQTVRRDIIYLDNQAVLKRHHGGVGTLPG | -1.97
HMNLPTSGVDALTPAERRVARMAGDGQSNREIAQTLFVTRKTVEIHLTSVYRKLGIASRAELSARL | -2.68
HMNLQGIISQKAIVTQTIEPYETGVAKLNGEEWTAMSKDETRIEAGKLVEVVAIEGVKLIVKEVS | -0.311
